Experimental findings from patent CN116284426A are described below.

Assay [1] addresses CD3εδ-ECD-his (CD3εδ异二聚体蛋白) (UniProt P07766). The assay is described as follows: ELISA, CD3εδ-ECD-his coated at 1 ug/mL, anti-human IgG Fab HRP (Table 15). A general note: ELISA stands for enzyme-linked immunosorbent assay.
For assay [2] the target is unchanged. Kind of assay: ELISA, CD3εδ-ECD-his coated at 1 ug/mL (Table 20).

B1: SP34 (humanized anti-CD3 monoclonal antibody) (antibody, human IgG1, kappa, V domains shown)
VH: EVQLVESGGGLVQPGGSLRLSCAASGFTFNTYAMNWVRQAPGKGLEWVARIRSKYNNYATYYADSVKDRFTISRDDSKNTLYLQMNSLRAEDTAVYYCVRHGNFGNSYVSWFAYWGQGTLVTVSS
VL: QAVVTQEPSLTVSPGGTVTLTCRSSTGAVTTSNYANWVQQKPGQAPRGLIGGTNKRAPGVPARFSGSLLGGKAALTLSGAQPEDEAEYYCALWYSNLWVFGQGTKVEIKR
For B1, the EC50 (in general, the concentration at which the effect is half-maximal) in assay [1] turned out to be 0.13 nM; in assay [2], 0.118 nM.
